{"source": "the DeepSol protein solubility set", "assay": "soluble on expression in E. coli; label from the status in PepcDB or PDB records", "data": [{"sequence": "MSLSDSRSDDRHPSVTPEQLATLSHEFRTPLNGVLGMARLLENTKLTAEQRSYVTALRESGDHLLSLVNDVLHFARLGAAAIELSLAPVDIEGLLRQVAELMSPRAHEKGIEIAWAVSSPLPTILADEGRLRQILLNFAGNAVKFTEAGGVLLTASAIDGGRVRFSVADTGPGVAPDARARIFEAFVQTDVTHATQLGGAGLGLAIVSRLSAAMGGAVGVGGELGQGAEFWFEAPFATAAAPLRAAPLEGRNVAIASPNAIVRAATARQIEAAGGRAYAAVDIASALAGAPADAVLLIDAALSGPRGALKPPAGRRSVVLLTPEQRDRIDRLKAAGFSGYLIKPLRAASLVAQVLQAVTADGVAEDEPAHDDRIAGAVASGARVLLAEDNPINALLARTLLEREGCIVDRVADGEQAIAAASAGVYDLILMDLRMPGLTGIEAARALRAKGVATPIAALTADAFDEDRRTCLAAGMDDFLVKPLTQEALRDALKRWTTGGVSGEGHHHHHH", "values": [{"measurement": "soluble on expression in E. coli", "value": "soluble"}]}, {"sequence": "MAAQRIRAANASGLPRCKSEGTLIDLSEGFSETSFNDVKVPSPSALLVDNPTPFGNAKEVIAIKDYCPNNFTTLKFSKGDHLYVLDTSGGEWWYAHNTTEMGYIPSSYVQPLNYRNSTLSDSGMIDNLPDSPEEVAKELDLLGGGWTDDQKESGRPYSNNPFWNGVRTNPFLNGNAQPSTDELNPKSTVDLLLFDTGTSSFTESSSATTNSTGNIFDELPATNGLQVEQPVKRDNPFFRSKRSYSLSELSVLQAKSDAPPTSSFFTGLKSPVPEQFQSREDFRTAWLNHRKLARSCHDLDLLGQSPGWGQTQAVETNIVCKLDSSGGSVQLPDTNISIHVPEGHVAPGETQQISMKALLDPPLDLNSDRSTSVSPVVEVKLSNLEVSTFIILEMKVSAEVKGDIFSKSTVVLQCLRSDSKEGPYVPIPLAYSYGDTIQVQLDNLEPCMYLAIVAQGPNILYPSTVWDFINKRVTVGLYGPKHIHPSFKTVVTIFGHDCAPKTLLVSEVTRQAPSPAPVALQLWGKHQFILSRPQDLRVCMFSNMTNYEVKANEQARVVRGFQMKLGKVSRLIFSVISQNPNELSDFTLRVQVKDDQDTILTQFCVQTPQPPPKSAIKPSGQRRFLKKNEVGKIILSPFVVTTKYPTFQDRPVSSLKFGKLLKTVVRQNKSHYLLEYKKGDVVALLSEERIRLKGQLWTKEWYIGYYQGKVGLVHTKNVLVVGKARPSLFSGPELSTSVLLEQILRPCKFLTYIYASVRTLLMENISSWRAFADALGYGNLPLTFFCRAELDSEPERVASVLEKLKEDCNNPDNKDRKSFQKELVMALLKMDCQGLVVRLIQDFVLLTTAVEVAQRWRELAEKLAKVSKQQMDAYESPHRDRNGVVDSEAMWKPAYDFLLTWSHQIGDSYRDVIQELHIGLDKMKNPITRRWKHLTGTLILVNSLDILRAAAFSPADHDDFVI", "values": [{"measurement": "soluble on expression in E. coli", "value": "soluble"}]}, {"sequence": "GPGSMSSSPNPMGAGTASATPKSTGGPEASPGSVRRSTLYAVLNVSHTATLEEITAAYRKLALVYHPDRPNGLQWKFQEIQRAYEVLSQKDARAKYDILLRGKLAVKNFKRPPPLESVLQPVYALLADGAFYEFEAASSKLKCSFHYGDGIQFNGDCGSFIGLAGDGFIYWTISGRGFASRLCKAGSTFALSSVRVMYRSNMGLAKMPLKRSSLHSSHTCRPAGSSGDKRAVRGSTGDAGCSERAKSTTGARAAKMSEADRIKKALLNKERSRNLKRRMETLKEEEIEARNSLQQDLWGQFSSLHTTAEVAFRCTLQGVAVPVEMALWMGYKSPEEVMLRSSGACSSLFIAEQVSLQTSSLWVDPLQSDYFNDDEMLREGCDGNKEDRKHCTSNGRDVTARHKPDSADSSPCSSQSSPASDGAPDGDACRGRSATASGTHSPILHRLNNGATAVTGASDGAEVAKKE", "values": [{"measurement": "soluble on expression in E. coli", "value": "not soluble"}]}, {"sequence": "MGSDKIHHHHHHMHSLTPEYLAALCFDGTQVATLRTLGEYQGKQQLYAAQSPEALKGLRQIAVVESTESSNRLEGVVVAPSRLKSLVIRNATPKSRSEQEIAGYRDALALIHESAAHMPFSEGVVLQLHTLLYRYMPQAGGRWKATNNDIIERHPDGTSRLRFQPVASHLTPMAMADLTGRYATALDQHLADPLVLVPLAMLDLLCIHPFPDGNGRMSRLLTLLLLYHFDYAVGRYISLERIFEETKESYYETLEASSQGWYQGQHDVKPWLDYFWGALLRAYREFEERVGTIERGRGSKGDRVRAEVLGRSLPFSISEIEEACPGVSRDMVRLVLRAMKSEGLIESTGKGRGAKWIKQG", "values": [{"measurement": "soluble on expression in E. coli", "value": "not soluble"}]}, {"sequence": "MSIEKLKAALPEYAKDIKLNLSSITRSSVLDQEQLWGTLLASAAATRNPQVLADIGAEATDHLSAAARHAALGAAAIMGMNNVFYRGRGFLEGRYDDLRPGLRMNIIANPGIPKANFELWSFAVSAINGCSQCLVAHEHTLRTVGVDREAIFEALKAAAIVSGVAQALATIEALSPS", "values": [{"measurement": "soluble on expression in E. coli", "value": "soluble"}]}]}
